Laboratory results as given in the Human Domainome abundance scans (Beltran et al. 2025).
± gives the uncertainty stated by the source.

B1: POU domain, class 3, transcription factor 4, residues 280 to 335; numbered along this chain, P49335 (parent)
chain: KKRTSIEVSVKGVLETHFLKCPKPAAQEISSLADSLQLEKEVVRVWFCNRRQKEKR
B2: Chromodomain-helicase-DNA-binding protein 3, residues 374 to 426; numbered along this chain, Q12873 (parent)
chain: YETDHQDYCEVCQQGGEIILCDTCPRAYHLVCLDPELDRAPEGKWSCPHCEKE

Variants of: B1
Experiment: abundance fitness (aPCA) (normalised: wild type 0, dead -1); higher = more abundant; growth selection in yeast, the domain comes from the species named
Settings: Homo sapiens

Abundance fitness of substitutions, site by site:
R56: W -0.393 ± 0.18, E 0.387 ± 0.2, M 0.123 ± 0.24, S 0.015 ± 0.27, L -0.075 ± 0.19, N 0.38 ± 0.48, T 0.002 ± 0.39, Y -0.144 ± 0.43, A -0.085 ± 0.29, G -0.325 ± 0.19
K55: Y -0.259 ± 0.24, V -0.069 ± 0.13, W -0.497 ± 0.24

Variants of: B2
Experiment: as above
Settings: Homo sapiens

Abundance fitness of substitutions, site by site:
C9: G -0.669 ± 0.14, H -0.786 ± 0.17, F -0.975 ± 0.17, Q -0.551 ± 0.15, R -0.62 ± 0.1, D -0.743 ± 0.19, L -0.681 ± 0.1, W -0.716 ± 0.13, E -0.548 ± 0.21, P -0.756 ± 0.14, K -0.425 ± 0.19, A -0.96 ± 0.18, Y -0.74 ± 0.11, V -0.633 ± 0.14, N -0.353 ± 0.15
D7: P 0.134 ± 0.26, V -0.083 ± 0.15, A 0.043 ± 0.17, H -0.012 ± 0.24, E -0.263 ± 0.25, Y -0.522 ± 0.23, S -0.154 ± 0.11, F -0.37 ± 0.22, G -0.055 ± 0.14, W -0.767 ± 0.33, L -0.727 ± 0.22, R -0.289 ± 0.13, N 0.044 ± 0.1, K -0.044 ± 0.15, Q -0.146 ± 0.26, M -0.105 ± 0.29, T -0.036 ± 0.19
Y1: K 0.352 ± 0.46, L 0.172 ± 0.27, C 0.258 ± 0.21, G 0.416 ± 0.21, E 0.154 ± 0.33, N -0.287 ± 0.25, V 0.156 ± 0.2, D -0.2 ± 0.19, I 0.557 ± 0.34, W 0.259 ± 0.21, S -0.264 ± 0.34
E2: L 0.282 ± 0.09, K 0.294 ± 0.15, V -0.232 ± 0.089, R -0.086 ± 0.12, M 0.549 ± 0.18, Q 0.231 ± 0.17, Y 0.327 ± 0.12, C 0.138 ± 0.15, I 0.419 ± 0.1, G -0.011 ± 0.13, P -0.095 ± 0.11, N 0.526 ± 0.11, A -0.263 ± 0.1, W -0.006 ± 0.27, H 0.126 ± 0.099, T 0.34 ± 0.097, F 0.285 ± 0.13, S 0.125 ± 0.098, D 0.327 ± 0.12
H5: P -0.071 ± 0.12, N 0.229 ± 0.14, E -0.137 ± 0.14, V 0.142 ± 0.092, L 0.161 ± 0.087, G 0.366 ± 0.11, C 0.222 ± 0.24, Q 0.13 ± 0.11, D -1.03 ± 0.24, A 0.329 ± 0.1, R 0.118 ± 0.093, F -0.171 ± 0.29, T 0.186 ± 0.11, S 0.302 ± 0.1, W -0.197 ± 0.12
Y8: R 0.25 ± 0.079, F 0.083 ± 0.23, Q 0.499 ± 0.12, P 0.302 ± 0.11, I 0.21 ± 0.21, H 0.461 ± 0.13, C -0.211 ± 0.18, E 0.098 ± 0.12, W -0.086 ± 0.12, T -0.118 ± 0.1, V 0.053 ± 0.1, A 0.207 ± 0.11, L 0.215 ± 0.095, N 0.061 ± 0.16, K 0.141 ± 0.12, S -0.026 ± 0.092, G 0.165 ± 0.094
Q6: G -0.299 ± 0.21, Y -0.267 ± 0.14, W -0.378 ± 0.17, F -0.579 ± 0.18, A -0.209 ± 0.27, H -0.014 ± 0.15, C -0.499 ± 0.17, S -0.439 ± 0.12, P -0.353 ± 0.16, E -0.227 ± 0.22, R -0.139 ± 0.14, D -0.294 ± 0.28
T3: W 0.13 ± 0.13, G 0.136 ± 0.1, D -0.163 ± 0.15, V -0.055 ± 0.093, M 0.377 ± 0.11, Q -0.069 ± 0.15, E 0.314 ± 0.14, A -0.179 ± 0.1, H -0.481 ± 0.22, F 0.236 ± 0.14, C -0.048 ± 0.12, R 0.206 ± 0.082, P -0.09 ± 0.12, K 0.363 ± 0.12, I -0.035 ± 0.14, Y 0.113 ± 0.14
D4: Q 0.075 ± 0.13, M 0.438 ± 0.11, K -0.041 ± 0.15, L 0.077 ± 0.086, T 0.079 ± 0.12, W -0.088 ± 0.13, H -0.136 ± 0.22, Y -0.126 ± 0.24, C -0.066 ± 0.18, R -0.203 ± 0.11, F -0.055 ± 0.12, V 0.166 ± 0.08, N -0.406 ± 0.15, G -0.001 ± 0.091, A 0.133 ± 0.085, I -0.156 ± 0.15
E10: T 0.132 ± 0.12, A -0.083 ± 0.11, Q 0.116 ± 0.18, P -0.006 ± 0.14, N 0.268 ± 0.14, V 0.137 ± 0.1, G -0.139 ± 0.089, L 0.259 ± 0.097, D 0.169 ± 0.13, R 0.027 ± 0.086, M -0.301 ± 0.13, S 0.064 ± 0.097, H 0.114 ± 0.16, K 0.169 ± 0.13, F -0.08 ± 0.14, C 0.046 ± 0.12
